Data on six molecules can be found in patent US20250326816A1 (KOREA UNIVERSITY RESEARCH AND BUSINESS FOUNDATION, published 2025).

The chains are these.
B2: ICOS-L variant Y8_P51Q (ligand)
chain: DTQEKEVRAMVGSDVELSCACPEGSRFDLNDVYVYWQTSESKTVVTYHIPQNSSLEHVDSRYRNRALMSPAGMLRGDFSLRLFNVTPQDEQKFHCLVLSQSLGFQEVLSVEVTLHVAANFSVPVVSAPHSPSQDELTFTCTSINGYPRPNVYWINKTDNSLLDQALQNDTVFLNMRGLYDVVSVLRIARTPSVNIGCCIENVLLQQNLTVGSQTGNDIGERDKITENPVSTGEKNAAT
notes: P51 of Y8 put back to Q; keeps N57H only
B3: ICOS-L variant Y8_H57N (ligand)
chain: DTQEKEVRAMVGSDVELSCACPEGSRFDLNDVYVYWQTSESKTVVTYHIPPNSSLENVDSRYRNRALMSPAGMLRGDFSLRLFNVTPQDEQKFHCLVLSQSLGFQEVLSVEVTLHVAANFSVPVVSAPHSPSQDELTFTCTSINGYPRPNVYWINKTDNSLLDQALQNDTVFLNMRGLYDVVSVLRIARTPSVNIGCCIENVLLQQNLTVGSQTGNDIGERDKITENPVSTGEKNAAT
notes: H57 of Y8 put back to N
B4: Dimeric human ICOS (ICOS-Fc) (Fc fusion, UniProt Q9Y6W8 21-140, looked up)
chain: EINGSANYEMFIFHNGGVQILCKYPDIVQQFKMQLLKGGQILCDLTKTKGSGNTVSIKSLKFCHSQLSNNSVSFFLYNLDHSHANYYFCNLSIFDPPPFKVTLTGGYLHIYESQLCCQLK
notes: range 21-140; Fc at the C-terminus of ICOS to induce dimerization; Labeled with Alexa488 when used as probe in the flow cytometry on yeast; also called ICOS-Fc dimer protein; ICOS dimer protein; not shown: GS linker of glycine and serine; Fc region (domain) of human IgG antibody

Assay [1] has as its target B4. The assay can be described thus: bio-layer interferometry (Octet R8); fold gain of KD over wild-type ICOS-L as printed in the table.
The target in assay [2] is B4. The assay can be described thus: ELISA, ICOS-Fc coated at 4 ug/ml, ICOS-L variant titrated, anti-His-HRP (x axis printed as PD-L1 CO…ON (nM)). The procedure: (§1) After washing four times, 50 μl of an anti-His-HRP conjugate was added and reacted at room temperature for 1 hour, and then washed four times. Thereafter, 50 μl of a 1-Step Ultra TMB-ELISA substrate solution (Thermo Fisher Scientific, 34028) was added to develop color, and then added with 50 μl each of 2 M H₂SO₄ to terminate the reaction, and then analyzed using an Epoch microplate spectrophotometer (BioTek).
(In general: An ELISA detects its analyte on a solid surface through an enzyme-linked reagent.)

Assay [3] concerns the target B4. The assay can be described thus: bio-layer interferometry (Octet R8), ICOS-Fc captured on Protein A biosensor, ICOS-L variant in solution; the table prints no units. Background: In BLI a coated tip is dipped into the sample, and binding shifts an interference pattern.
Assay [4] addresses B4. The assay can be described thus: ELISA, ICOS-Fc coated at 4 ug/ml, ICOS-L variant titrated, anti-His-HRP. The procedure:
as §1

The assay “ICOS-L variant Y8_H57N” concerns the target B3. The assay can be described thus: bio-layer interferometry (Octet R8), ICOS-Fc captured on Protein A biosensor, ICOS-L variant in solution; the table prints no units.
The target of another assay is T1, wild-type ICOS-L (Homo sapiens (Human), UniProt O75144 19-256).
T1 construct: also called wild-type Inducible Co-Stimulator-ligand
T1 sequence: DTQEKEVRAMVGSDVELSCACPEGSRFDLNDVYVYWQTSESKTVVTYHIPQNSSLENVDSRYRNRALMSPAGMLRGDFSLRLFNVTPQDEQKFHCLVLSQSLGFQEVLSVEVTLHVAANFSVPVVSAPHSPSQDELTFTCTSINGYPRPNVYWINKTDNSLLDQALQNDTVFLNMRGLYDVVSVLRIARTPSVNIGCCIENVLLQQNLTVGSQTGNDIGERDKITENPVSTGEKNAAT
The assay is described as above.

The assay “ICOS-L variant Y8_P51Q” deals with B2. Described as above.
In assay [5] the target is T2, ATZ (L)-Y8_H57N: ICOS-L Y8_H57N variant fused to the light chain of Atezolizumab with LALAPG mutation in the … (Homo sapiens (Human), UniProt O75144 19-256).
T2 construct: Antibody-ligand fusion; ICOS-L at the C-terminal of the light chain; not shown: Atezolizumab light chain (VL plus constant region), atezolizumab heavy chain with LALAPG, and any linker
T2 sequence: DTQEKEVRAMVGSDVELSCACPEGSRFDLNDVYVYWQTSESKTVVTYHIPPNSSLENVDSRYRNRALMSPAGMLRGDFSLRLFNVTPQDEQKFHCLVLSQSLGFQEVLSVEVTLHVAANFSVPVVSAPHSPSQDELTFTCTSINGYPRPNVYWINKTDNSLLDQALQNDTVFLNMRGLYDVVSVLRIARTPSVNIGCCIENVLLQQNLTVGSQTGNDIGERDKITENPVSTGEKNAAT
The assay can be described thus: sandwich ELISA, PD-L1-Fc coated at 40 nM, atezolizumab fusion captured at 200 nM, His-tagged ICOS monomer titrated, anti-His-HRP. Here is the method:
(§2) Specifically, 50 μl of 40 nM PD-L1-Fc in 0.05 M Na₂CO₃ (pH 9.6) was dispensed into a Flat Bottom Polystyrene High Bind 96-well microplate (Costar), immobilized at 4° C. for 16 hours, and then blocked with 100 μl of PBS (pH 7.4) containing 0.5% bovine serum albumin (BSA) (Gibco) for 2 hours at room temperature. […] After washing four times, 50 μl of an anti-His-HRP conjugate was added and reacted at room temperature for 1 hour, and then washed four times. Thereafter, 50 μl of a 1-Step Ultra TMB-ELISA substrate solution (Thermo Fisher Scientific, 34028) was added to develop color, and then added with 50 μl each of 2 M H₂SO₄ to terminate the reaction, and then analyzed using an Epoch microplate spectrophotometer (BioTek).

For assay [6], the target named is T3, ATZ (H)-A184: ICOS-L A184 variant fused to the heavy chain of Atezolizumab with LALAPG mutation in the Fc … (Homo sapiens (Human), UniProt O75144 19-256).
T3 construct: Antibody-ligand fusion; ICOS-L at the C-terminal of the heavy chain; not shown: Atezolizumab heavy chain (VH plus IgG1 constant region with LALAPG), atezolizumab light chain, and any linker
T3 chain: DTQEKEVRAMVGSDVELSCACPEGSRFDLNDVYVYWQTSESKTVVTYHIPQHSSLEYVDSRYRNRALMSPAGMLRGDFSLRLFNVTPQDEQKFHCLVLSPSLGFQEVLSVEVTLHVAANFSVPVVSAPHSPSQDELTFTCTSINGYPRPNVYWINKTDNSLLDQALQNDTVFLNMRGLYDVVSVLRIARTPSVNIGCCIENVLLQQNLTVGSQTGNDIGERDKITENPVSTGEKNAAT
The assay is described as above. Here is the method: as §2

Assay [7] has as its target T4, ICOS-L variant Y8 fused to antibody Fc domain (LALAPG) (human, UniProt O75144 19-256).
T4 construct: also called Y8-Fc; not shown: human IgG1 Fc with L234A/L235A/P329G C-terminal to ICOS-L
T4 chain: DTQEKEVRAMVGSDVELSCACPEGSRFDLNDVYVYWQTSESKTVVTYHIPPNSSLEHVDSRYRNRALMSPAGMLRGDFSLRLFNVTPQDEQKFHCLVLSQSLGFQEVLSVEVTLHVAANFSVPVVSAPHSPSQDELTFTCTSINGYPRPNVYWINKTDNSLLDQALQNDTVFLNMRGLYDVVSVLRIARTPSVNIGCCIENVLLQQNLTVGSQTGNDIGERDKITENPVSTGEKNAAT
The assay can be described thus: ELISA, ICOS-L-Fc coated at 4 ug/ml, His-tagged ICOS monomer titrated, anti-His-HRP. Here is the method: as §1

B1: A184 (ligand)
single chain: DTQEKEVRAMVGSDVELSCACPEGSRFDLNDVYVYWQTSESKTVVTYHIPQHSSLEYVDSRYRNRALMSPAGMLRGDFSLRLFNVTPQDEQKFHCLVLSPSLGFQEVLSVEVTLHVAANFSVPVVSAPHSPSQDELTFTCTSINGYPRPNVYWINKTDNSLLDQALQNDTVFLNMRGLYDVVSVLRIARTPSVNIGCCIENVLLQQNLTVGSQTGNDIGERDKITENPVSTGEKNAAT
notes: Soluble form without Fc; the Fc and atezolizumab fusions are m12, m15 and m18; also called control A184
By EC50 (read off the curve) is commonly meant the concentration giving half of the maximal effect. What is called Kd is the equilibrium constant for the complex coming apart. Low readings indicate a tighter complex, high ones a looser complex. On to B1, for which the “INCREASED MULTIPLE” value in [1] was determined as 4.89. For the same molecule, the “EC50 (read off the curve)” value in assay [2] was around 20 nM. In addition, binding in [3] was characterised by a dissociation constant (Kd) of 23.1 nM.
Take B2: the “INCREASED MULTIPLE” value in [1] is 4.85.
As for B3, in [4], the “EC50 (read off the curve)” value was around 10 nM. For the same molecule, in [1], the “INCREASED MULTIPLE” value is 23.8.
For B4, the dissociation constant Kd is 4.75 nM in the assay with ICOS-L variant Y8_H57N, 113 nM with wild-type ICOS-L and 23.3 nM with ICOS-L variant Y8_P51Q.

B5: ICOS-L variant Y8 (ligand)
chain: DTQEKEVRAMVGSDVELSCACPEGSRFDLNDVYVYWQTSESKTVVTYHIPPNSSLEHVDSRYRNRALMSPAGMLRGDFSLRLFNVTPQDEQKFHCLVLSQSLGFQEVLSVEVTLHVAANFSVPVVSAPHSPSQDELTFTCTSINGYPRPNVYWINKTDNSLLDQALQNDTVFLNMRGLYDVVSVLRIARTPSVNIGCCIENVLLQQNLTVGSQTGNDIGERDKITENPVSTGEKNAAT
As for B5, the “EC50 (read off the curve)” value in assay [4] was around 4 nM; in assay [2], around 6 nM. The “INCREASED MULTIPLE” value in [1] came out at 95. The molecule also had a Kd in assay [3] of 1.19 nM.

B6: ICOS monomer protein (ICOS E21-H129) (receptor, human, UniProt Q9Y6W8 21-129, looked up)
chain: EINGSANYEMFIFHNGGVQILCKYPDIVQQFKMQLLKGGQILCDLTKTKGSGNTVSIKSLKFCHSQLSNNSVSFFLYNLDHSHANYYFCNLSIFDPPPFKVTLTGGYLH
notes: range 21-129; also called wild-type ICOS
Turning to B6, the figures for the “EC50 (read off the curve)” value in assay [5], in assay [6] and in [7] were around 9 nM, around 5 nM and around 4 nM, respectively.
